{"source": "patent US20200262877A1", "about": "“ION CHANNEL-BINDING PEPTIDES AND METHODS OF USE THEREOF” (priority 2017, published 2020)", "key": {"Kir2.1": {"target": "T1, Kir2.1 (Homo sapiens, UniProt P63252)", "T1 construct": "host or cells: HEK293 or CHO", "T1 sequence (P63252 whole entry)": "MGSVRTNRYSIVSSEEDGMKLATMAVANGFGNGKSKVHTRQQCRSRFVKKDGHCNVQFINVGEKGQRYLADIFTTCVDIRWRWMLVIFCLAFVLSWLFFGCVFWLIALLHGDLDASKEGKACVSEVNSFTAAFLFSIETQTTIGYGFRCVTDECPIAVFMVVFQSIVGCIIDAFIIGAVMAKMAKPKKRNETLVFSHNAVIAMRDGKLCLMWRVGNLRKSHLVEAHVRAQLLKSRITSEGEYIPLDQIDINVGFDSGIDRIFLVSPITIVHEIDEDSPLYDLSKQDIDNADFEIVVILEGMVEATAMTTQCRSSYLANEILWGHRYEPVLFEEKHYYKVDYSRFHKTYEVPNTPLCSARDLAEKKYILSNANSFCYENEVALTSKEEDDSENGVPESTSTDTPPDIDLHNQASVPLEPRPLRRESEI", "assay": "Ion channel panel (IonWorks Barracuda): Kir2.1", "type": "cell-based", "settings": "100% = no change, <100% = inhibition", "method_in_brief": "(§1)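 Transfected HEK293 or CHO cells were exposed for at least 5 min to peptides at 200 nM and 20 μM final, tested in duplicate, in HEPES-buffered physiological saline. Activation was taken as peptide-plus-agonist current over control current ×100, and inhibition as 1 minus that ratio ×100. Each channel's control was its own reference compound.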"}, "NR2B": {"target": "T2, NR2B (Homo sapiens, UniProt Q13224)", "T2 construct": "host or cells: HEK293 or CHO", "assay": "Ion channel panel (IonWorks Barracuda): NR2B", "type": "cell-based", "settings": "100% = no change, <100% = inhibition", "method_in_brief": "as §1"}, "Nav1.5": {"target": "Nav1.5 (Homo sapiens, UniProt Q14524)", "sequence (Q14524 whole entry)": "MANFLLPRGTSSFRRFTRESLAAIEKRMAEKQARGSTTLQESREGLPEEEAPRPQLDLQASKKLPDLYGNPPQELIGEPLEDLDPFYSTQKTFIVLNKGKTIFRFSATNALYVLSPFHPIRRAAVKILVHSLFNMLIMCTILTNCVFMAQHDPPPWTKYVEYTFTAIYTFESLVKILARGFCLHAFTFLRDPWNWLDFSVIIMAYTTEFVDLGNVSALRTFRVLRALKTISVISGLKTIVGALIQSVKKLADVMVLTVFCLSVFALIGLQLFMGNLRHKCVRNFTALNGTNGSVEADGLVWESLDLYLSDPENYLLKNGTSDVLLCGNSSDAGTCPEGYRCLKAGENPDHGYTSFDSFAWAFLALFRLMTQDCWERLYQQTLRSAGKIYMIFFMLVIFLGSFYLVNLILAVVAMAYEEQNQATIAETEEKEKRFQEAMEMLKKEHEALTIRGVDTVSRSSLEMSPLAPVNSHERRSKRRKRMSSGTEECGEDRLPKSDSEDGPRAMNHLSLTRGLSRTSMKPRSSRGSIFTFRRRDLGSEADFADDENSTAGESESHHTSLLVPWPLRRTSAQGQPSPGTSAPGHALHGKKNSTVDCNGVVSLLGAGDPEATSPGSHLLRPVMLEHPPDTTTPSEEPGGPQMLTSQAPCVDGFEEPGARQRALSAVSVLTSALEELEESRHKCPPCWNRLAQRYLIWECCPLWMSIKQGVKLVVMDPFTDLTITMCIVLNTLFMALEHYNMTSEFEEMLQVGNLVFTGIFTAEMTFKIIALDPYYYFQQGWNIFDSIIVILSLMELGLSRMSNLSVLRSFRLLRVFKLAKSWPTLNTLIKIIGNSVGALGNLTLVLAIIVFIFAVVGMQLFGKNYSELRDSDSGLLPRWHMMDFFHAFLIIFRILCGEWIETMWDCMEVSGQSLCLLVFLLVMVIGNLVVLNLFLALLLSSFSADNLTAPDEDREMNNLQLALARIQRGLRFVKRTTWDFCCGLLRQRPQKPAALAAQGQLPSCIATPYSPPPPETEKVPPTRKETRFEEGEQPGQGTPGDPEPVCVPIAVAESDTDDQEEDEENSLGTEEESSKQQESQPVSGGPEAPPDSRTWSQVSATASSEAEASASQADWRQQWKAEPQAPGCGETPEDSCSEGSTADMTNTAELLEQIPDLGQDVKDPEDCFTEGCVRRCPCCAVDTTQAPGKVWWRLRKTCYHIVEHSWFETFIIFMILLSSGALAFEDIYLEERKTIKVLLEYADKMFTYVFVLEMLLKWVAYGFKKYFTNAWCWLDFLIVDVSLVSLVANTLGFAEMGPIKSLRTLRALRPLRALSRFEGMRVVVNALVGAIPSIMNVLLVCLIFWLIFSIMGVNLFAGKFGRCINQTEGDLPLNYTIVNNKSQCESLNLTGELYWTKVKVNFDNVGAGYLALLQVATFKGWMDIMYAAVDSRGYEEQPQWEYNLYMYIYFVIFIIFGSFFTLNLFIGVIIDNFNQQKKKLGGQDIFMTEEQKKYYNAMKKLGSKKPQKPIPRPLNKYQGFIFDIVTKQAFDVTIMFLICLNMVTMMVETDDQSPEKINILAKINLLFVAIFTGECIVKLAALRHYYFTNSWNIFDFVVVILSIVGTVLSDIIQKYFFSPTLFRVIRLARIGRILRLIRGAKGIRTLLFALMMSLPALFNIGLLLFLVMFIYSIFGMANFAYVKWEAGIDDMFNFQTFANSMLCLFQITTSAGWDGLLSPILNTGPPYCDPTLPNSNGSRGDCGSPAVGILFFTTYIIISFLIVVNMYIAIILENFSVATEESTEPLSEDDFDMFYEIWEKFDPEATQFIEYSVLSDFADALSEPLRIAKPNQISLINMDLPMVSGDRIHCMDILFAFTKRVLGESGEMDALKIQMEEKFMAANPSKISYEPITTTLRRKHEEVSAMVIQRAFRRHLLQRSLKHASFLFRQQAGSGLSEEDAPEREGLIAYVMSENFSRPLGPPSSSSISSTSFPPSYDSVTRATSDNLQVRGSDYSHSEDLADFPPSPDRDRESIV", "assay": "in vitro", "settings": "100% = no change; for Activity of Nav1.5 with peptide, expressed as a percentage of the reference compound: peptide at 0.2 μM; for Activity of Nav1.5 with peptide (percentage of the reference compound): peptide at 20 μM", "method_in_brief": "as §1"}, "hERG": {"target": "hERG (Homo sapiens, UniProt Q12809)", "assay": "in vitro", "settings": "100% = no change, <100% = inhibition", "method_in_brief": "as §1"}, "TRPV1": {"target": "T3, TRPV1 (Homo sapiens, UniProt Q8NER1)", "T3 construct": "host or cells: HEK293 or CHO", "assay": "Ion channel panel (IonWorks Barracuda): TRPV1", "type": "cell-based", "settings": "100% = no change, <100% = inhibition", "method_in_brief": "as §1"}, "TRPA1": {"target": "T4, TRPA1 (Homo sapiens, UniProt O75762)", "T4 construct": "host or cells: HEK293 or CHO", "assay": "Ion channel panel (IonWorks Barracuda): TRPA1", "type": "cell-based", "settings": "100% = no change, <100% = inhibition", "method_in_brief": "as §1"}, "Cav2.2": {"target": "T5, Cav2.2 (Homo sapiens, UniProt Q00975)", "T5 construct": "host or cells: HEK293 or CHO", "assay": "cell-based", "settings": "100% = no change, <100% = inhibition", "method_in_brief": "as §1"}, "Kv2.1": {"target": "T6, Kv2.1 (Homo sapiens, UniProt Q14721)", "T6 construct": "host or cells: HEK293 or CHO", "assay": "cell-based", "settings": "100% = no change, <100% = inhibition", "method_in_brief": "as §1"}, "Cav2.1": {"target": "T7, Cav2.1 (Homo sapiens, UniProt O00555)", "T7 construct": "host or cells: HEK293 or CHO", "assay": "cell-based", "settings": "100% = no change, <100% = inhibition", "method_in_brief": "as §1"}, "α4β2": {"target": "T8, α4β2 (Homo sapiens, UniProt P17787+P43681)", "T8 construct": "host or cells: HEK293 or CHO", "assay": "Ion channel panel (IonWorks Barracuda): α4β2", "type": "cell-based", "settings": "100% = no change, <100% = inhibition", "method_in_brief": "as §1"}, "Kv1.2": {"target": "T9, Kv1.2 (Homo sapiens, UniProt P16389)", "T9 construct": "host or cells: HEK293 or CHO", "assay": "cell-based", "type": "cell-based", "settings": "100% = no change, <100% = inhibition", "method_in_brief": "as §1"}, "Kv1.3": {"target": "T10, Kv1.3 (Homo sapiens, UniProt P22001)", "T10 construct": "host or cells: HEK293 or CHO", "T10 sequence (P22001 whole entry)": "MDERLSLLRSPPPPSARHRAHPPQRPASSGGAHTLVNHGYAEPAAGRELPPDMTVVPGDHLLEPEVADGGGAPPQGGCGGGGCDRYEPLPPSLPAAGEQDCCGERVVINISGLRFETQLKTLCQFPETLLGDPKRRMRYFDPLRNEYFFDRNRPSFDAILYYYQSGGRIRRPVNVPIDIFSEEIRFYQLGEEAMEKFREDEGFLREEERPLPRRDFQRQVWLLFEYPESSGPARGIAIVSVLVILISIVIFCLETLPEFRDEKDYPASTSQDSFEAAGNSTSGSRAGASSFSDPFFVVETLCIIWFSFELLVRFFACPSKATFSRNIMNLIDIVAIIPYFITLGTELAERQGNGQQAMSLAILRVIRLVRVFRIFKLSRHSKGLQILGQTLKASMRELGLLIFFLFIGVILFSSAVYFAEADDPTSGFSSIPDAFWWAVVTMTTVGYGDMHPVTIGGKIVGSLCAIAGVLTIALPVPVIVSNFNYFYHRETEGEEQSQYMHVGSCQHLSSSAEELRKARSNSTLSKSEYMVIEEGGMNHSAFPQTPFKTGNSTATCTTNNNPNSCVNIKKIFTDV", "assay": "cell-based", "type": "cell-based", "settings": "100% = no change, <100% = inhibition", "method_in_brief": "as §1"}, "Kv1.1": {"target": "T11, Kv1.1 (Homo sapiens, UniProt Q09470)", "T11 construct": "host or cells: HEK293 or CHO", "assay": "cell-based", "type": "cell-based", "settings": "100% = no change, <100% = inhibition", "method_in_brief": "as §1"}, "α3β4": {"target": "T12, α3β4 (Homo sapiens, UniProt P30926+P32297)", "T12 construct": "host or cells: HEK293 or CHO", "assay": "Ion channel panel (IonWorks Barracuda): α3β4", "type": "cell-based", "settings": "100% = no change, <100% = inhibition", "method_in_brief": "as §1"}, "5HT3a": {"target": "T13, 5HT3a (Homo sapiens, UniProt P46098)", "T13 construct": "host or cells: HEK293 or CHO", "T13 sequence (P46098 whole entry, looked up)": "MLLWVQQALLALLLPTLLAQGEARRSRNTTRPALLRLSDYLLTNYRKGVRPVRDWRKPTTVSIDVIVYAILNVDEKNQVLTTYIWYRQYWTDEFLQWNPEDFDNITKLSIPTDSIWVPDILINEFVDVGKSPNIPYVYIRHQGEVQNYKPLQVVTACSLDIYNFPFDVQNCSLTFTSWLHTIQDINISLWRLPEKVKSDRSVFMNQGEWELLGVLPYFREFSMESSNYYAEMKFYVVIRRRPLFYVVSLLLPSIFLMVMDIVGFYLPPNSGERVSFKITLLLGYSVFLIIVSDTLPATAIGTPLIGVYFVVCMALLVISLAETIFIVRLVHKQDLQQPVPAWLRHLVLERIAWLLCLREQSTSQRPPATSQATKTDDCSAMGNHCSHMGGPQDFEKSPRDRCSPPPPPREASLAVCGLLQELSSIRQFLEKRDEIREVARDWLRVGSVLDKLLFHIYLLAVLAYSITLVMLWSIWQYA", "assay": "Ion channel panel (IonWorks Barracuda): 5HT3a", "type": "cell-based", "method_in_brief": "as §1"}, "GABA": {"system": "GABA", "assay": "Ion channel panel (IonWorks Barracuda): GABA", "type": "cell-based", "settings": "100% = no change, <100% = inhibition", "method_in_brief": "as §1"}, "NR2A": {"target": "T14, NR2A (Homo sapiens, UniProt Q12879)", "T14 construct": "host or cells: HEK293 or CHO", "assay": "Ion channel panel (IonWorks Barracuda): NR2A", "type": "cell-based", "settings": "100% = no change, <100% = inhibition", "method_in_brief": "as §1"}, "Nav1.7": {"target": "T15, Nav1.7 (Homo sapiens, UniProt Q15858)", "T15 construct": "host or cells: HEK293 or CHO", "T15 sequence (Q15858 whole entry)": "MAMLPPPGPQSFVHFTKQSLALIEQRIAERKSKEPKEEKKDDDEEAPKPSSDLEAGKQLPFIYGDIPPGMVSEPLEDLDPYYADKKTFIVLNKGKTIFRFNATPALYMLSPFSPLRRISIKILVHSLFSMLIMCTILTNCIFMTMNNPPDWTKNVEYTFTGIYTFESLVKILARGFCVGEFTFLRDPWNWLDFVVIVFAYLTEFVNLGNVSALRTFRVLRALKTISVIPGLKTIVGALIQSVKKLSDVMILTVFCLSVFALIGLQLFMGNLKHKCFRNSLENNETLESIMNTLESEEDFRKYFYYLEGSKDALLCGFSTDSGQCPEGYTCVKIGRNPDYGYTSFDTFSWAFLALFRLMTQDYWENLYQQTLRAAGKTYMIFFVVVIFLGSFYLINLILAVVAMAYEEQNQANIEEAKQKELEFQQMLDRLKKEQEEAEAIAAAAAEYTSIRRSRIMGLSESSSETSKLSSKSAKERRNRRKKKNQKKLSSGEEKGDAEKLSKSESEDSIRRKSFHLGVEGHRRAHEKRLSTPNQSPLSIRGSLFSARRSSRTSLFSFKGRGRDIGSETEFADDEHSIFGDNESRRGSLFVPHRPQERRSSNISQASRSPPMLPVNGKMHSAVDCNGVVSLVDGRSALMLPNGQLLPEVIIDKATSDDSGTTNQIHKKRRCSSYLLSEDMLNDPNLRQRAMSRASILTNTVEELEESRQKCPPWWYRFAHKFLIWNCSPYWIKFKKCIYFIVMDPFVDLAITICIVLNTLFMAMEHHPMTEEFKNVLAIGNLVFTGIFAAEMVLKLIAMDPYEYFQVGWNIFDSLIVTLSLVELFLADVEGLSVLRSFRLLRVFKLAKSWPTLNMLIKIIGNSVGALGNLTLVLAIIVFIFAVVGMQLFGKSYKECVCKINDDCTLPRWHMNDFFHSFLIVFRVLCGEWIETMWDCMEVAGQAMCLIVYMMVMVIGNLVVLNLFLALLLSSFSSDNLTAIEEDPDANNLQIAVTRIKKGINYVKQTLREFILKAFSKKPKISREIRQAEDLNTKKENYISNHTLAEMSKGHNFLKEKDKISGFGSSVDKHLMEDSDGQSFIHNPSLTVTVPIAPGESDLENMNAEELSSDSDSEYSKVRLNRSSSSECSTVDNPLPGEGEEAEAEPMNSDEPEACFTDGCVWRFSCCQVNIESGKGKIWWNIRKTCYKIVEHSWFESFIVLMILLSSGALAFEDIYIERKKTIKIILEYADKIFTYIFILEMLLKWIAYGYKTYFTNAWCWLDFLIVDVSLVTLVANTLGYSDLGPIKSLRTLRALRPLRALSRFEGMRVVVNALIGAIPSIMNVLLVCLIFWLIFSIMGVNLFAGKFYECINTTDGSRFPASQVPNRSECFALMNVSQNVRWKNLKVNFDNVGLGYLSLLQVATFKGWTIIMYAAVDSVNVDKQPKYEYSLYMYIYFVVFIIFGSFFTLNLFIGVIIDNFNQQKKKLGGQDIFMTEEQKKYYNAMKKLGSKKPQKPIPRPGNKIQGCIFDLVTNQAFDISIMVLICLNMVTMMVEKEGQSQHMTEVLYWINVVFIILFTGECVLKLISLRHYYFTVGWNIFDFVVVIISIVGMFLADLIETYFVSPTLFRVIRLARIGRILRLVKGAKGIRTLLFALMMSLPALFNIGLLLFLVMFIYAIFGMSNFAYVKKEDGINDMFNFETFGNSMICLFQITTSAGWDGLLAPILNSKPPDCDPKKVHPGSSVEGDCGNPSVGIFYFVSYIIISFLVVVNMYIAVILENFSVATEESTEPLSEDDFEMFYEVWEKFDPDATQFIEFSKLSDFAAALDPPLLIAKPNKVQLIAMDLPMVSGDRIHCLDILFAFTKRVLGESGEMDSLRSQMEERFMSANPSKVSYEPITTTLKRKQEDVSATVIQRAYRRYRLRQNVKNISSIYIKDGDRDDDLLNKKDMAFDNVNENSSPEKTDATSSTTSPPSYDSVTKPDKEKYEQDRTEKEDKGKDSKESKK", "assay": "cell-based", "type": "cell-based", "settings": "100% = no change; for Activity of Nav1.7 with peptide, expressed as a percentage of the reference compound: peptide at 0.2 μM; for Activity of Nav1.7 with peptide (percentage of the reference compound): peptide at 20 μM"}, "[1]": {"settings": "first of two Nav1.5 columns (probably TP1)"}, "[2]": {"settings": "second of two Nav1.5 columns (probably TP2)"}, "[3]": {"settings": "first of two Nav1.7 columns (probably TP1)"}, "[4]": {"settings": "second of two Nav1.7 columns (probably TP2)"}}}
{"substance": "18 (GSNCAGYMRECKEKLCCSGYVCSSRWKWCVLPAPWRR) [compound 18]", "values": [{"measurement": "Activity of Kir2.1 with peptide, expressed as a percentage of the reference compound", "setting": "Kir2.1; peptide at 0.2 μM", "value": 104, "unit": "%"}, {"measurement": "Activity of Kir2.1 with peptide (percentage of the reference compound)", "setting": "Kir2.1; peptide at 20 μM", "value": 93, "unit": "%"}, {"measurement": "Activity of NR2B with peptide, expressed as a percentage of the reference compound", "setting": "NR2B; peptide at 0.2 μM", "value": 107, "unit": "%"}, {"measurement": "Activity of NR2B with peptide (percentage of the reference compound)", "setting": "NR2B; peptide at 20 μM", "value": 78, "unit": "%"}, {"measurement": "Activity of Nav1.5 with peptide, expressed as a percentage of the reference compound", "setting": "Nav1.5; [1]", "value": 104, "unit": "%"}, {"measurement": "Activity of Nav1.5 with peptide, expressed as a percentage of the reference compound", "setting": "Nav1.5; [2]", "value": 106, "unit": "%"}, {"measurement": "Activity of Nav1.5 with peptide (percentage of the reference compound)", "setting": "Nav1.5; [1]", "value": 87, "unit": "%"}, {"measurement": "Activity of Nav1.5 with peptide (percentage of the reference compound)", "setting": "Nav1.5; [2]", "value": 112, "unit": "%"}, {"measurement": "Activity of hERG with peptide, expressed as a percentage of the reference compound", "setting": "hERG; peptide at 0.2 μM", "value": 98, "unit": "%"}, {"measurement": "Activity of hERG with peptide (percentage of the reference compound)", "setting": "hERG; peptide at 20 μM", "value": 62, "unit": "%"}, {"measurement": "Activity of TRPV1 with peptide, expressed as a percentage of the reference compound", "setting": "TRPV1; peptide at 0.2 μM", "value": 93, "unit": "%"}, {"measurement": "Activity of TRPV1 with peptide (percentage of the reference compound)", "setting": "TRPV1; peptide at 20 μM", "value": 61, "unit": "%"}, {"measurement": "Activity of TRPA1 with peptide, expressed as a percentage of the reference compound", "setting": "TRPA1; peptide at 0.2 μM", "value": 130, "unit": "%"}, {"measurement": "Activity of TRPA1 with peptide (percentage of the reference compound)", "setting": "TRPA1; peptide at 20 μM", "value": 89, "unit": "%"}, {"measurement": "Activity of Cav2.2 with peptide, expressed as a percentage of the reference compound", "setting": "Cav2.2; peptide at 0.2 μM", "value": 132, "unit": "%"}, {"measurement": "Activity of Cav2.2 with peptide (percentage of the reference compound)", "setting": "Cav2.2; peptide at 20 μM", "value": 124, "unit": "%"}, {"measurement": "Activity of Kv2.1 with peptide, expressed as a percentage of the reference compound", "setting": "Kv2.1; peptide at 0.2 μM", "value": 93, "unit": "%"}, {"measurement": "Activity of Kv2.1 with peptide (percentage of the reference compound)", "setting": "Kv2.1; peptide at 20 μM", "value": 65, "unit": "%"}, {"measurement": "Activity of Cav2.1 with peptide, expressed as a percentage of the reference compound", "setting": "Cav2.1; peptide at 0.2 μM", "value": 97, "unit": "%"}, {"measurement": "Activity of Cav2.1 with peptide (percentage of the reference compound)", "setting": "Cav2.1; peptide at 20 μM", "value": 98, "unit": "%"}, {"measurement": "Activity of a4b2 with peptide, expressed as a percentage of the reference compound", "setting": "α4β2; peptide at 0.2 μM", "value": 109, "unit": "%"}, {"measurement": "Activity of a4b2 with peptide (percentage of the reference compound)", "setting": "α4β2; peptide at 20 μM", "value": 92, "unit": "%"}, {"measurement": "Activity of Kv1.2 with peptide, expressed as a percentage of the reference compound", "setting": "Kv1.2; peptide at 0.2 μM", "value": 67, "unit": "%"}, {"measurement": "Activity of Kv1.2 with peptide (percentage of the reference compound)", "setting": "Kv1.2; peptide at 20 μM", "value": 30, "unit": "%"}, {"measurement": "Activity of Kv1.3 with peptide, expressed as a percentage of the reference compound", "setting": "Kv1.3; peptide at 0.2 μM", "value": 87, "unit": "%"}, {"measurement": "Activity of Kv1.3 with peptide (percentage of the reference compound)", "setting": "Kv1.3; peptide at 20 μM", "value": 7, "unit": "%"}, {"measurement": "Activity of Kv1.1 with peptide, expressed as a percentage of the reference compound", "setting": "Kv1.1; peptide at 0.2 μM", "value": 98, "unit": "%"}, {"measurement": "Activity of Kv1.1 with peptide (percentage of the reference compound)", "setting": "Kv1.1; peptide at 20 μM", "value": 78, "unit": "%"}, {"measurement": "Activity of a3b4 with peptide, expressed as a percentage of the reference compound", "setting": "α3β4; peptide at 0.2 μM", "value": 110, "unit": "%"}, {"measurement": "Activity of a3b4 with peptide (percentage of the reference compound)", "setting": "α3β4; peptide at 20 μM", "value": 89, "unit": "%"}, {"measurement": "Activity of 5HT3a with peptide (percentage of the reference compound)", "setting": "5HT3a", "value": 79, "unit": "%"}, {"measurement": "Activity of 5HT3a with peptide, expressed as a percentage of the reference compound", "setting": "5HT3a", "value": 95, "unit": "%"}, {"measurement": "Activity of GABA with peptide, expressed as a percentage of the reference compound", "setting": "GABA; peptide at 0.2 μM", "value": 113, "unit": "%"}, {"measurement": "Activity of GABA with peptide (percentage of the reference compound)", "setting": "GABA; peptide at 20 μM", "value": 106, "unit": "%"}, {"measurement": "Activity of NR2A with peptide, expressed as a percentage of the reference compound", "setting": "NR2A; peptide at 0.2 μM", "value": 98, "unit": "%"}, {"measurement": "Activity of NR2A with peptide (percentage of the reference compound)", "setting": "NR2A; peptide at 20 μM", "value": 79, "unit": "%"}, {"measurement": "Activity of Nav1.7 with peptide, expressed as a percentage of the reference compound", "setting": "Nav1.7; [3]", "value": 85, "unit": "%"}, {"measurement": "Activity of Nav1.7 with peptide, expressed as a percentage of the reference compound", "setting": "Nav1.7; [4]", "value": 84, "unit": "%"}, {"measurement": "Activity of Nav1.7 with peptide (percentage of the reference compound)", "setting": "Nav1.7; [3]", "value": 43, "unit": "%"}, {"measurement": "Activity of Nav1.7 with peptide (percentage of the reference compound)", "setting": "Nav1.7; [4]", "value": 55, "unit": "%"}]}
